Laboratory results published in article PMC2633621 (Nature chemical biology, 2008).
Changes are numbered by the printed parent chain. In names and notes the source's numbering stands.

T1: I211R mutant Kvβ2 expressed in complex with the T1 domain (rat, UniProt P62483 36-367, I211R)
T1 sequence (looked up): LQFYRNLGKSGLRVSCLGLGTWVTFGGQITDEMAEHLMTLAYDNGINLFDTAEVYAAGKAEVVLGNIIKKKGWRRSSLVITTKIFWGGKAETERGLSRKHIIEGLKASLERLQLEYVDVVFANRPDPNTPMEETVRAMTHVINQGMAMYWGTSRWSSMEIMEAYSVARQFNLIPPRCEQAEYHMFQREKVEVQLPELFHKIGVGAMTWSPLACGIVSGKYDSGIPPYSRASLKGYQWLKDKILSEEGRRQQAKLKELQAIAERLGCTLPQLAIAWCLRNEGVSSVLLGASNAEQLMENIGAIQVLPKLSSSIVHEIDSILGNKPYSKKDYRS

B1: T1 domain of Kv1.1 (residues 2 to 135), fusion with N-terminal 6-histidine tag and SUMO protein (domain or fragment, rat, UniProt P10499 2-135, looked up)
chain: TVMSGENADEASAAPGHPQDGSYPRQADHDDHECCERVVINISGLRFETQLKTLAQFPNTLLGNPKKRMRYFDPLRNEYFFDRNRPSFDAILYYYQSGGRLRRPVNVPLDMFSEEIKFYELGEEAMEKFREDEG
B2: Kvβ2 conserved core (residues 36 to 367), purified and co-crystallized with cortisone (domain or fragment, rat, UniProt P62483 36-367, looked up)
chain: T1 sequence (looked up) with R176I
B3: I211R mutant Kvβ2, co-crystallized with 2 mM cortisone (domain or fragment, rat, UniProt P62483 36-367, looked up)
chain: T1 sequence (looked up)
B4: W121A mutant Kvβ2, co-crystallized with cortisone (domain or fragment, rat, UniProt P62483 36-367, looked up)
chain: T1 sequence (looked up) with W86A, R176I

Legend:
[1] = target: T1, I211R mutant Kvβ2 expressed in complex …; assay: pull-down
crystal structure = target: the molecule itself; assay: crystal structure

Binder	binding result (crystal structure)	also measured
B1		binding result [1]: binds
B2		stoichiometry N (crystal structure): 4
B3	binds	
B4	binds	
